In patent US20240417477A1 (B G NEGEV TECHNOLOGIES AND APPLICATIONS LTD AT BEN GURION …, published 2024):
Each block holds one binder with its values, some of them ahead of it.

Tests used:
[1] = target: T1, human Axl recombinant protein (ACROBiosystems) (human, UniProt P30530 26-449, limits assumed); test: SPR (Biorad ProteOn XPR36), antibody immobilised, recombinant AXL as analyte 3.125-50 nM
T1 construct: Coated on ELISA plates; analyte in SPR; also called recombinant AXL; human AXL protein
Excerpt: (§1) All four constructs were purified using Ni-NTA resins and diluted to different concentrations prior to ELISA binding analysis. […] To further determine the dissociation constant (KD value) of the mono specific and bi-specific antibodies to their respective targets, the surface plasmon resonance (SPR) method was utilized (using Biorad ProteOn XPR36). The different antibodies were immobilized in independent channels on a SPR sensor prism (ProteOn XPR36 compatible chip), as ligands. […] Based on the association and dissociation interaction between each of the recombinant proteins and the respective antibodies, respective KD values were calculated.

[2] = target: T2, human PD-1 recombinant protein (ACROBiosystems) (human, UniProt Q15116 25-167, biotinylated (in the ELISA, captured on streptavidin)); test: ELISA: biotinylated recombinant human PD-1 on streptavidin plate, purified antibody 0 to 10 nM, anti-human-Fc-HRP
T2 construct: Analyte in SPR; also called recombinant PD-1; human PD-1 protein
Method: (§2) The plates were then blocked, and incubated with serial dilutions of the antibodies. Next, anti-human-FC-HRP (Jackson laboratories) was added to the plates and a reaction was developed with TMB substrates. Once color developed H2SO4 was used to end the reaction. Plates were washed with PBST (PBS containing 0.05% Tween-20) between the steps. Each of the mentioned steps was carried out for 1 hour at room temperature. The plates were then read on a spectrophotometer at 450 nm.
as §1

[3] = target: T2, human PD-1 recombinant protein …; test: ELISA: biotinylated human PD-1 on streptavidin plate, dilutions of secreted construct, anti-human-Fc-HRP
Method: as §2

[4] = target: T1, human Axl recombinant protein …; test: ELISA: human AXL recombinant protein on the plate, dilutions of secreted construct, anti-human-Fc-HRP
Method: as §2

[5] = target: T1, human Axl recombinant protein …; test: ELISA: recombinant human AXL on the plate, purified antibody 0 to 50 nM, anti-human-Fc-HRP
Method: as §2, §1

[6] = target: T2, human PD-1 recombinant protein …; test: SPR (Biorad ProteOn XPR36), antibody immobilised, recombinant PD-1 as analyte 3.125-50 nM
Excerpt: as §1

[7] = target: T3, AXL expressed on HNSCC tumor cells (SCC47, SNU1076, FaDu) (human, UniProt P30530 26-894); test: cell-based or functional assay
[8] = target: T4, human PD-1 receptor overexpressed on Bw-PD-1 reporter cells (fusion of PD-1 with a zeta chain) (human, UniProt Q15116 25-288); test: cell-based or functional assay
[9] = target: T3, AXL expressed on HNSCC tumor cells …; test: cell-based or functional assay; remark: listed apart in the source
[10] = target: T4, human PD-1 receptor overexpressed on …; test: cell-based or functional assay; remark: listed apart in the source

T2 sequence (Q15116 25-167 limits assumed): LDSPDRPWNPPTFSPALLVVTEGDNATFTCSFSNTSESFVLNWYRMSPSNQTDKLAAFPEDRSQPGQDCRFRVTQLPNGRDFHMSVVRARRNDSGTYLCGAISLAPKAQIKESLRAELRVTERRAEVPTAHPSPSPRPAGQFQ
T4 sequence (Q15116 25-288): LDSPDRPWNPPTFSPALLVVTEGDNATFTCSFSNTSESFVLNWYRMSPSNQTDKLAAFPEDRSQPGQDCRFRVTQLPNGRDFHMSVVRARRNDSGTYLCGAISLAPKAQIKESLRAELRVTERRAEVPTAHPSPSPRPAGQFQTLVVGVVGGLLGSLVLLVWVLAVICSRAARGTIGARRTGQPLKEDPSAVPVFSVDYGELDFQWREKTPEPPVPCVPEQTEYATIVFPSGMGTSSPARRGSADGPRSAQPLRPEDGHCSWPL

Kd [1]: 20.9 nM
koff [1]: 0.00102 s⁻¹
kon [1]: 49000 M⁻¹ s⁻¹
binding result [2]: no binding (tested: 10 nM)
B1: mono-specific anti-AXL scFv-Fc AXL2 (from YW327.6S2) (Fc fusion)
chain: DIQMTQSPSSLSASVGDRVTITCRASQDVSTAVAWYQQKPGKAPKLLIYSASFLYSGVPSRFSGSGSGTDFTLTISSLQPEDFATYYCQQSYTTPPTFGQGTKVEIKGGGGSGGGGSGGGGSGGGGSEVQLVESGGGLVQPGGSLRLSCAASGFSLSGSWIHWVRQAPGKGLEWVGWINPYRGYAYYADSVKGRFTISADTSKNTAYLQMNSLRAEDTAVYYCAREYSGWGGSSVGYAMDYWGQGTLVGGGGSGGGGSGGGGSGGGGS
notes: also called mono-AXL; AXL2 scFv-Fc; not shown: engineered human IgG1 Fc (hinge, CH2, CH3) of plasmid pFUSE-hIgG1e3-Fc2; C-terminal His tag

binding result [3]: binds
binding result [4]: binds
B2: Bi-2 bi-specific construct AXL-PD1-Fc (anti-AXL scFv-anti PD1 scFv-Fc) (bispecific antibody)
chain: DIQMTQSPSSLSASVGDRVTITCRASQDVSTAVAWYQQKPGKAPKLLIYSASFLYSGVPSRFSGSGSGTDFTLTISSLQPEDFATYYCQQSYTTPPTFGQGTKVEIKGGGGSGGGGSGGGGSGGGGSEVQLVESGGGLVQPGGSLRLSCAASGFSLSGSWIHWVRQAPGKGLEWVGWINPYRGYAYYADSVKGRFTISADTSKNTAYLQMNSLRAEDTAVYYCAREYSGWGGSSVGYAMDYWGQGTLVGGGGSGGGGSGGGGSGGGGSEIVLTQSPATLSLSPGERATLSCRASQSVSSYLAWYQQKPGQAPRLLIYDASNRATGIPARFSGSGSGTDFTLTISSLEPEDFAVYYCQQSSNWPRTFGQGTKVEIKGGGGSGGGGSGGGGSGGGGSQVQLVESGGGVVQPGRSLRLDCKASGITFSNSGMHWVRQAPGKGLEWVAVIWYDGSKRYYADSVKGRFTISRDNSKNTLFLQMNSLRAEDTAVYYCATNDDYWGQGTLVTVSSGGGGSGGGGSGGGGSGGGGSRSVECPPCPAPPVAGPSVFLFPPKPKDTLMISRTPEVTCVVVDVSHEDPEVKFNWYVDGVEVHNAKTKPREEQYNSTYRVVSVLTVLHQDWLNGKEYKCKVSNKGLPSSIEKTISKAKGQPREPQVYTLPPSREEMTKNQVSLTCLVKGFYPSDIAVEWESNGQPENNYKTTPPVLDSDGSFFLYSKLTVDKSRWQQGNVFSCSVMHEGLHNHYTQKSLSLSPGKHHHHHH
notes: Tandem anti-AXL scFv and anti-PD-1 scFv, engineered human IgG1 Fc, C-terminal His tag; also called BsAbI-AXL/PD-1

binding result [5]: no binding (tested: 50 nM)
B3: mono-specific anti-PD-1 scFv-Fc PD-1-2 (from Nivolumab) (Fc fusion)
chain: EIVLTQSPATLSLSPGERATLSCRASQSVSSYLAWYQQKPGQAPRLLIYDASNRATGIPARFSGSGSGTDFTLTISSLEPEDFAVYYCQQSSNWPRTFGQGTKVEIKGGGGSGGGGSGGGGSGGGGSQVQLVESGGGVVQPGRSLRLDCKASGITFSNSGMHWVRQAPGKGLEWVAVIWYDGSKRYYADSVKGRFTISRDNSKNTLFLQMNSLRAEDTAVYYCATNDDYWGQGTLVTVSSGGGGSGGGGSGGGGSGGGGS
notes: the tie is by this chain of statements; also called mono-PD-1; mono PD-1; not shown: engineered human IgG1 Fc (hinge, CH2, CH3) of plasmid pFUSE-hIgG1e3-Fc2; C-terminal His tag

Kd [6]: 5.82 nM
koff [6]: 0.000743 s⁻¹
kon [6]: 128000 M⁻¹ s⁻¹
%Gated 'Doublets & Focused' (image stream, Area BF against Aspect Ratio BF), FaDu-plx GFP cells mixed with DiD-stained Bw-PD-1 cells; same figure: No treatment 690 / 7.6, Combo 442 / 4.9 [7]: 17.8 %Gated
%Gated 'Doublets & Focused' (image stream, Area BF against Aspect Ratio BF), FaDu-plx GFP cells mixed with DiD-stained Bw-PD-1 cells; same figure: No treatment 690 / 7.6, Combo 442 / 4.9 [8]: 17.8 %Gated
Kd [1]: 60 nM
koff [1]: 0.00247 s⁻¹
kon [1]: 41100 M⁻¹ s⁻¹
FaDu GFP / Bw-PD-1 mCherry cell doublets by flow cytometry, against the combination of mono Abs and no treatment [9]: 2.5 fold
FaDu GFP / Bw-PD-1 mCherry cell doublets by flow cytometry, against the combination of mono Abs and no treatment [10]: 2.5 fold
B4: Bi-3 bi-specific construct PD1-Fc-AXL (anti PD1 scFv-Fc-anti AXL scFv) (bispecific antibody)
chain: EIVLTQSPATLSLSPGERATLSCRASQSVSSYLAWYQQKPGQAPRLLIYDASNRATGIPARFSGSGSGTDFTLTISSLEPEDFAVYYCQQSSNWPRTFGQGTKVEIKGGGGSGGGGSGGGGSGGGGSQVQLVESGGGVVQPGRSLRLDCKASGITFSNSGMHWVRQAPGKGLEWVAVIWYDGSKRYYADSVKGRFTISRDNSKNTLFLQMNSLRAEDTAVYYCATNDDYWGQGTLVTVSSGGGGSGGGGSGGGGSGGGGSRSVECPPCPAPPVAGPSVFLFPPKPKDTLMISRTPEVTCVVVDVSHEDPEVKFNWYVDGVEVHNAKTKPREEQYNSTYRVVSVLTVLHQDWLNGKEYKCKVSNKGLPSSIEKTISKAKGQPREPQVYTLPPSREEMTKNQVSLTCLVKGFYPSDIAVEWESNGQPENNYKTTPPVLDSDGSFFLYSKLTVDKSRWQQGNVFSCSVMHEGLHNHYTQKSLSLSPGKGGGGSGGGGSGGGGSGGGGSDIQMTQSPSSLSASVGDRVTITCRASQDVSTAVAWYQQKPGKAPKLLIYSASFLYSGVPSRFSGSGSGTDFTLTISSLQPEDFATYYCQQSYTTPPTFGQGTKVEIKGGGGSGGGGSGGGGSGGGGSEVQLVESGGGLVQPGGSLRLSCAASGFSLSGSWIHWVRQAPGKGLEWVGWINPYRGYAYYADSVKGRFTISADTSKNTAYLQMNSLRAEDTAVYYCAREYSGWGGSSVGYAMDYWGQGTLVHHHHHH
notes: Anti-PD-1 scFv at the N-terminus and anti-AXL scFv at the C-terminus of an engineered human IgG1 Fc, C-terminal His tag; also called BsAbI-AXL/PD-1; BsAb-AXL/PD1 (Bi-3)

binding result [3]: binds
EC50 (read off the curve) [5]: ~5 nM
B5: Bi-1 bi-specific construct PD1-AXL-Fc (anti PD1 scFv-anti AXL scFv-Fc) (bispecific antibody)
chain: EIVLTQSPATLSLSPGERATLSCRASQSVSSYLAWYQQKPGQAPRLLIYDASNRATGIPARFSGSGSGTDFTLTISSLEPEDFAVYYCQQSSNWPRTFGQGTKVEIKGGGGSGGGGSGGGGSGGGGSQVQLVESGGGVVQPGRSLRLDCKASGITFSNSGMHWVRQAPGKGLEWVAVIWYDGSKRYYADSVKGRFTISRDNSKNTLFLQMNSLRAEDTAVYYCATNDDYWGQGTLVTVSSGGGGSGGGGSGGGGSGGGGSDIQMTQSPSSLSASVGDRVTITCRASQDVSTAVAWYQQKPGKAPKLLIYSASFLYSGVPSRFSGSGSGTDFTLTISSLQPEDFATYYCQQSYTTPPTFGQGTKVEIKGGGGSGGGGSGGGGSGGGGSEVQLVESGGGLVQPGGSLRLSCAASGFSLSGSWIHWVRQAPGKGLEWVGWINPYRGYAYYADSVKGRFTISADTSKNTAYLQMNSLRAEDTAVYYCAREYSGWGGSSVGYAMDYWGQGTLVGGGGSGGGGSGGGGSGGGGSRSVECPPCPAPPVAGPSVFLFPPKPKDTLMISRTPEVTCVVVDVSHEDPEVKFNWYVDGVEVHNAKTKPREEQYNSTYRVVSVLTVLHQDWLNGKEYKCKVSNKGLPSSIEKTISKAKGQPREPQVYTLPPSREEMTKNQVSLTCLVKGFYPSDIAVEWESNGQPENNYKTTPPVLDSDGSFFLYSKLTVDKSRWQQGNVFSCSVMHEGLHNHYTQKSLSLSPGKHHHHHH
notes: Tandem anti-PD-1 scFv (Nivolumab-derived) and anti-AXL scFv (YW327.6S2-derived), engineered human IgG1 Fc (pFUSE-hIgG1e3-Fc2), C-terminal His tag; also called BsAbI-AXL/PD-1; BsAb-AXL/PD1
